In the nanobody polyreactivity screen of Harvey et al. (2022):

Assay: yeast display, Sf9 membrane polyspecificity reagent, FACS + sequencing; frameworks hold sequencing errors
In short: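 Synthetic nanobody libraries on Saccharomyces cerevisiae BJ5465 were galactose-induced for 36–48 hours, stained 1 hour at 4 °C with 10% biotinylated, detergent-solubilized Sf9 membrane reagent and enriched on streptavidin microbeads. FACS then separated cells into low and high (top ~1%) gates by anti-HA (expression) and streptavidin (reagent binding) fluorescence. Genes were colony-PCR amplified, MiSeq 2 × 250 sequenced and CDR-length filtered. A clone's polyreactivity label is that of its gate of origin.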

Sequence | polyreactivity (PSR sort gate)
QVQIVESGGGLVQAGGSLRLSCPASGSTFSRYAMGWYRQAPGKERELVAAISWSGGRTYYADSVKGRFTISRDYATNTVYLLMNSLKPEDTAVYYCAARKLVVILREEYWVQGTQVTVSS | high polyreactivity
QVQIVESGGGLVQAGGSLRLSSAASGSIFPAYAMGWYSLAPWKERELVASITGSGGTTYYADSVKGRFTISRDNAKNTGYLQMNSLKPVDTADNYCNARYYVYSATVDRYGYWGQGSQVTVSS | high polyreactivity
QVQIVESGGGLVQAGGSLRLTCAASGFIFSRYAMGWYRQAPAKERELVAAITSGGRTNYADSVKGRFTISRDNAKNTVYLQMNRLKPEDTAVYYCSGAFYPFWPRYTSDYWGQGTQVTVSS | high polyreactivity
QVQIVESGGGLVQAGGSLRLTCAASGLISTYYVMGWYRQAPGKERELVAAIRASDASTYYADSVKGRFTISRDNAKNTVYLQMNSLKPEDTAVYYCATDSYYVDDTEYDYWGQGTQVTVSS | low polyreactivity
QVQIVESGGGLVQAGGSLRLTCAASGSIFGYYAMGWYRQAPGKERELVAAITTGGSTSYADSVKGRFTISRDNAKKTVYLQMNSLKPEDTAVYYCNARFKLLFGRADDYWGQGTQVTVSS | low polyreactivity
QVQIVESGGGLVQAGGSLRVSCAASGSIFKIYAMGWYRQAPGKERELVASITGSGGSTYYADSVKGRFTISRDNAKNTVYLQMNSLKPEDTAVYYCAAAVLGSSTSEVDPDRPEYYYWGHGTQVTVSS | low polyreactivity
QVQIVESGGGLVQAGGSLRVSCAASGSTFAVYAMGWYRQAPGKEREMVAAISQSGGSTNYADSVKGRFTISRDNAKNTVYLQMNSLKPEDTAVYYCNVDVSRSWAQPYTYDYWGHGTQVTVSS | low polyreactivity
QVQIVESGGGLVQAGGSVRLSCAASGRTFYYNAMGWYRQAPGKERELVASISSSDSDTYYADSVKGRFTISRDNAKNTVYLQMNSLKPEDTAVYYCAAEYYWDLTFTRYDYWGQGTQVTVSS | low polyreactivity
QVQIVESGGGLVQAGGTLRLSCAASGLTFAYYDMGWYSQAPGKERELVAAITSVGTTNYADSVKGRFSISRDNSKNTVYLKMNSLKPEDTAVYYCNADYFSRIVGDRIYDYCGQGTQVTVSS | low polyreactivity
QVQIVESGGGLVQAGVSLRISCAASGSTFADYTMGWYRQAPGKERELVAAISQSGARTYYADSVKGRFTISRDNAKNTVYLQMNSLKPEDTAVYYCAATKAASGPYFRYYYWGQGTQVTVSS | high polyreactivity
QVQIVESGGGLVQARGSLRLSCAASGRTFYGYALGWYRQAPGKERELVASIRSRTGSTYYADSVKGRFTISRDNAKNTVYLLMNILKPEDTAVYYCARPYYAKGFAFDYWGLGTQVTVSS | high polyreactivity
QVQIVESGGGLVQARGSLRLSFAASGFTFSHYAMGWYRQAPGKERELVAAISASGGRTYFADSVKGRFTISRDNAKNTVYVQMNSLKPEDTAVYYCAAKLYDCGGRYWYVYWGQGTQVTVSS | high polyreactivity
QVQIVESGGGLVQGGGSLRLSCAASGSIFGGNAMGWYRQAPGKERELVATITVRGGSTYNADSVKGRFTISRDNAKNTVYLQMNSLKPEDTAVYYCAARGVYLLPKYDYWGQGTQVTVSS | low polyreactivity
QVQIVESGGGSVQAGGSLRLSCADSGFTFRKNAMGWYRQAPGKERELVAAISVSGGRTYYADSVKVRFTISRDNAKNTFYLQMNSLKPEETAVYYCAARRYVLVHKYDYWGQGTQVTVSS | high polyreactivity
QVQIVESGGVLVQAGGSLRLSCAASGLTLKRYAMGWYRQAPRKERELVASITGSGGSTYADTVKARFTISRDNAKNTVYLHMNSLNPEDTAVYYCAKDTRYEYVGSEYCFWGQGTQVTVSS | low polyreactivity
QVQIVESGRGLFQAGGSLRISCPASGYIFLANAMGLYRQAPGKERELVAAITSGGGGTYYADSVKARFTISGDNAKNPVYLLMNTLKPEDTAVYHCAADHGRDGSSIEYWGHGTQVTVSS | low polyreactivity
QVQIVESGRGLVQAGGSLRLSCAPSGRIFIYNAMGWYIQAPGKERELVAAISWRGGRTYYADSVKGRFTISRDNAKNTVYLQMNRLKPEDTAVYYCNAEPYGYERLYDYWGQGTQVNVSS | high polyreactivity
QVQIVESRGGLVQAGGSLRLSCAASGSNLHYYTMGWYRQAPGNEREFVAGISWSGGRTYYADSVKGRFTISRDNAKNTVYFQMNSRKPEDTAVYYCNRQARRGFHRYHLYGYGYWGQGTQVTVSS | high polyreactivity
QVQIVESVGGLVQAGGSLRLSCAASGSTFWFTDMGWYRQAPGKERELVAVITWTGGSTSYADSVKGRFTISRDNAKNTDYLQMKCLNAEDTADYYCDTPVKFGGVPYRYGYWGQGTEVTVSS | low polyreactivity
QVQIVETGGGLVQAGGSLRLSCAASGSIFSAYVMGWYRQAPGKERELVAAITRTGGRTYYADSVKGRFTISRDNAKNTVYLQMNSLKPEDTAVYYCAKEAITRTFPYRHEYWGQGTQVTVSS | low polyreactivity
QVQIVETGGGLVQAGGSLRLSCEASGSTFRNYAMGWYRQATGKERELDAAISSGGSTNYADSVKGRFTISRDNAKNTVFLQMNSLKPEYTAVYYCAAKAWYYPGSRIYYQYYYWGQGTQVTVSS | high polyreactivity
